# Experimental data: patent publication US20220143140A1, “ANTI-CD6 ANTIBODY COMPOSITIONS AND METHODS FOR TREATING LUPUS” (Equillium, Inc., priority 2019, published 2022)
# B1: EQ001: itolizumab, humanized anti-CD6 antibody, produced in CHO cells; VH/VK SEQ ID NOS: 1 and 2 (antibody, V domains shown)
# VH: EVQLVESGGGLVKPGGSLKLSCAASGFKFSRYAMSWVRQAPGKRLEWVATISSGGSYIYYPDSVKGRFTISRDNVKNTLYLQMSSLRSEDTAMYYCARRDYDLDYFDSWGQGTLVTVSS
# VL: DIQMTQSPSSLSASVGDRVTITCKASRDIRSYLTWYQQKPGKAPKTLIYYATSLADGVPSRFSGSGSGQDYSLTISSLESDDTATYYCLQHGESPFTLGSGTKLEIK
# modifications: Made in Lab - synthesized VH amino acid sequence; Made in Lab - synthesized VK amino acid sequence
# Tested on: subjects with active lupus nephritis
# Experiment: Clinical trial: urinary soluble CD6 and soluble ALCAM before and after EQ001
# Format: in vivo, human
# Experimental: 30 ml of urine is collected from a patient (or control individual) and treated with a protease inhibitor cocktail tablet on ice (MiliporeSigma, Burlington, Mass., USA) according to manufacturer's instructions. The sample is centrifuged at 10,000×g for 1 min or 5,000×g for 2 min, and the urine is removed from any pellet, aliquoted, and quick frozen in a dry ice/methanol bath and stored at −80° C. until use.
# Several suitable ELISA kits are available commercially and are suitable for use in detecting soluble ALCAM and soluble CD6. For example, human ALCAM DuoSet ELISA (R&D Systems, Minneapolis, Minn.) is utilized according to the manufacturer's instructions to measure soluble ALCAM in a urine sample, and quantification is performed by generating a standard curve. Human CD6 ELISA kit (Sandwich ELISA)(LifeSpan BioSciences, Inc, Seattle, Wash.) is utilized according to the manufacturer's instructions to measure soluble CD6 in a urine sample, and quantification is performed by generating a standard curve.
# In order to determine whether high urinary levels of soluble CD6 and soluble ALCAM can be used as a biomarker for sensitivity to treatment with EQ001, a clinical trial is performed in which concentrations of these markers are analyzed in the urine of subjects with active lupus nephritis before and after treatment with EQ001.
# Urine samples are collected from the subjects biweekly for 2-3 months to establish individual baseline urinary soluble CD6 and soluble ALCAM concentrations. Treatment is initiated after at least five baseline measurements are obtained. Subjects receive EQ001 or vehicle administered intravenously every two weeks for a total of 5 doses, and a urine sample is collected 3 days after initial dosing, and twice weekly thereafter over the course of the study, which continues for 20 weeks post-initial treatment.
# As described above, immediately after collection, samples are treated, aliquoted, and frozen in accordance with the above method, and upon the completion of the study, samples are tested by ELISA.
# [1] = Cohort 4, active lupus nephritis, iv every two weeks, 5 doses, ELISA
molecule,measurement,setting,value
B1,urinary soluble ALCAM levels,[1],significant decreases
same,urinary soluble CD6 levels,[1],significant decreases
same,response to treatment by basal soluble CD6 and soluble ALCAM,subjects with the highest basal levels,respond most dramatically
